# Assay: soluble on expression in E. coli; label from the status in PepcDB or PDB records
row,Sequence,soluble on expression in E. coli
1,MTWFIDRRLNGKNKSTVNRQRFLRRYKAQIKQSISEAINKRSVTDVDSGESVSIPTDDISEPMFHQGRGGLRHRVHPGNDHFIQNDRIERPQGGGGGGSGSGQGQASQDGEGQDEFVFQISKDEYLDLLFEDLALPNLKKNQHRQLNEYKTHRAGFTSNGVPANISVVRSLQNSLARRTAMTAGKRRELHALETELETISHSEPAQLLEEERLRREIAELRAKIERVPFIDTFDLRYKNYEKRPEPSSQAVMFCLMDVSGSMDQATKDMAKRFYILLYLFLSRTYKNVEVVYIRHHTQAKEVDEHEFFYSQETGGTIVSSALKLMDEVVKERYDPGQWNIYAAQASDGDNWADDSPLCHEILAKKLLPVVRYYSYIEITRRAHQTLWREYEHLQATFDNFAMQHIRDQEDIYPVFRELFQKQSANQSALEHHHHHH,soluble
2,MTYCLGVKLKDGLVAIADTRITSGTDTTTAKKLFVHESAHGSLFLMTSGLRSVRDKAITYFKEVLKDEHVVYNQLYEAVNAFGNQLRRVAEEDRKALYAAGFAFNLHTIVGGQLKNDEEPKMFLLYPEGNWIELTQTSPFMIIGNSGYGKPILNRTVKYESTLEEVLKAGFLSFDSTRVSANDVDFPLDVVVYYNNSFKMIEHRFEKKDMEIISTTWDNQLKQALDSVPEEWMNVVFDRKNVLLEHHHHHH,not soluble
3,MTYVFGPVSSKRLGQSLGVDLLPSKSCTWNCIYCQLGRTTAFVTERREFFPKEEILSEILETVASGKPIDWITFVGSGETTLYKGLDWLIAEVKKISKIPVAVITNGSLLSDPEVRRELLEADAVLPSLNAGSPELFERIDRPAPGFTFEKHVEGLRLFRQEYRGKLWVEVMLIRGVNDSEEALKEMAAVLAEIRPDMIHLVMPTRPAPESFVGIPDEELIQRAVFVLSSSAPVLHPAKGEMNLGSVGNLLDTVAGIASRHPVQERELEAALGKLFDGDAAKIRETMGELLASGRFEKVRQGSELYWIVKSA,not soluble
4,MVAIIDASITRFGKRKESLLELAGEVALPLIGKYEIDFVVVSNSYSGEFNSLSGINNLITTYLSVDKVPSIRVDNTSGSGGSAILVAKSLLDSKITKTVLVLGVEKMSEKNTKQVTSVIASLLSPEEKIVGLTLPSLAGLMTKEYMRRYNASREAFALVAVKNHYNGSLNPFAHIQKVVSLEEVLNSPIIADPLTLYEFTPISDGASAIVMVRDEDAYSFTKKPVFI,not soluble
5,MVAISEIKSTVDVTAANCLMLLSRVGQENVDGGDQKRVFTCKTCLKQFHSFQALGGHRASHKKPNNDALSSGLMKKVKTSSHPCPICGVEFPMGQALGGHMRRHRNESGAAGGALVTRALLPEPTVTTLKKSSSGKRVACLDLSLGMVDNLNLKLELGRTVY,not soluble
6,MVAKQISKADIHLLRVFCIVVDSQGFSNAQVALNVATSTISRQISELETRLGMRLCDRGRSGFRVTEKGETVYQAAQKLFGALGEFQETVDGSRGRLFGHLALGIIENWASNTSAPIVQALSRFTDLAPDVTIELHSLAPDDIEFAVLDGRVPIGIGVFHSPKPGILYTKVCEERVCLYCGSGHPLFHMTNLEDEERVLRQAQFAKRAYLNEDVVAPKTRNLPSNATAHQMEAIALLILTDKYVGYLPSYFAEEWVAKGRMKIVAGGSFDRPVSVQTATRRGMKLNSVGRTFLDILTAEAVKQGG,not soluble
7,MVALRGKDATSFLARPDPGRPIVLLYGPDAGLVRERADALIAASLDDPKDPFALVRLDGDELSAEPSRLVDEALAIPMFGGRRAIRVRAGSRSFVAGVEALIASPPRECRIVIEAGDIKPDNALRKACEKAATGAVAIGCYPDAEADIARLIDDELRGSNLQIAKDARAVLTTLLGGDRQASRNELRKLALYAHGKGEVTLDDVITCVSDASDLKLDAIVDAAFSGKPVVVETEFAKAMVAGTYPGQIILAAQRHAAFLHKTSLVVEGGTPAAVVLDSGFPRLHFSRKAAAETALRNLSTTRLAQIIEQLASAALETRRQATLGAAIAQRTLLSIAVSARRRSLEHHHHHH,soluble
8,MVAPGSVTSRLGSVFPFLLVLVDLQYEGAECGVNADVEKHLELGKKLLAAGQLADALSQFHAAVDGDPDNYIAYYRRATVFLAMGKSKAALPDLTKVIQLKMDFTAARLQRGHLLLKQGKLDEAEDDFKKVLKSNPSENEEKEAQSQLIKSDEMQRLRSQALNAFGSGDYTAAIAFLDKILEVCVWDAELRELRAECFIKEGEPRKAISDLKAASKLKNDNTEAFYKISTLYYQLGDHELSLSEVRECLKLDQDHKRCFAHYKQVKKLNKLIESAEELIRDGRYTDATSKYESVMKTEPSIAEYTVRSKERICHCFSKDEKPVEAIRVCSEVLQMEPDNVNALKDRAEAYLIEEMYDEAIQDYETAQEHNENDQQIREGLEKAQRLLKQSQKRDYYKILGVKRNAKKQEIIKAYRKLALQWHPDNFQNEEEKKKAEKKFIDIAAAKEVLSDPEMRKKFDDGEDPLDAESQQGGGGNPFHRSWNSWQGFNPFSSGGPFRFKFHFN,soluble
9,MVAQQKNLEGYVGFANLPNQVYRKSVKRGFEFTLMVVGESGLGKSTLINSLFLTDLYSPEYPGPSHRIKKTVQVEQSKVLIKEGGVQLLLTIVDTPGFGDAVDNSNCWQPVIDYIDSKFEDYLNAESRVNRRQMPDNRVQCCLYFIAPSGHGLKPLDIEFMKRLHEKVNIIPLIAKADTLTPEECQQFKKQIMKEIQEHKIKIYEFPETDDEEENKLVKKIKDRLPLAVVGSNTIIEVNGKRVRGRQYPWGVAEVENGEHCDFTILRNMLIRTHMQDLKDVTNNVHYENYRSRKLAAVTYNGVDNNKNKGQLTKSPLAQMEEERREHVAKMKKMEMEMEQVFEMKVKEKVQKLKDSEAELQRRHEQMKKNLEAQHKELEEKRRQFEDEKANWEAQQRILEQQNSSRTLEKNKKKGKIF,soluble
10,MVATEKKFVLTHIFKNVSKMKDSDFLYSPEENLFNVPWFMLIARKDDHFGVFLHCQKINEAGPTWSVDTQNTIRVKTLSASKVSSEIFKHKFEKNEGWGYFKFISWDTLTNDYLIDDCIIVEITVKITKMTGIPKKVLRSFDKSAEEFSDVVLEVGGKKFYVLKKFLASHSTYFNALLLGKPEMSEVTIQDTSSVDFQNLLEVLYGEPAIDEDTIDGILTLAHKFTMPLPIQKCEEFLIEKSEKSVKEKLKLVKKYQLKSLKTHCLSKINTPYGINALMPFDHNDMDPEVVMALLKKSLATDEFYLDCIMRFTVICLIFITVGLII,not soluble
11,MVCDFSQVRLRLADDGWRGTTTRREKDDAEDVEGKVTLRLRYTKTGAMRFLSHLEMIGLFTRAVGRSRIPIRFSRGFHPHPKFSFATALSVGVESWAEYLDMELFPGADPTDIGTRLNGALPEGVRIVEASVIPPGSPSLSVIMDKVRYRVTLPPEAAVGLPELAAAFLARESVPLRREKKGRVLEHHHHHH,not soluble
12,MVDEDKKSGTRVFKKTSPNGKITTYLGKRDFIDRGDYVDLIDGMVLIDEEYIKDNRKVTAHLLAAFRYGREDLDVLGLTFRKDLISETFQVYPQTDKSISRPLSRLQERLKRKLGANAFPFWFEVAPKSASSVTLQPAPGDTGKPCGVDYELKTFVAVTDGSSGEKPKKSALSNTVRLAIRKLTYAPFESRPQPMVDVSKYFMMSSGLLHMEVSLDKEMYYHGESISVNVHIQNNSNKTVKKLKIYIIQVADICLFTTASYSCEVARIESNEGFPVGPGGTLSKVFAVCPLLSNNKDKRGLALDGQLKHEDTNLASSTILDSKTSKESLGIVVQYRVKVRAVLGPLNGELFAELPFTLTHSKPPESPERTDRGLPSIEATNGSEPVDIDLIQLHEELEPRYDDDLIFEDFARMRLHGNDSEDQPSPSANLPPSLL,not soluble
13,MVDESKLQCYHKGCGLLFDPKENDNEACTYHPGGPYFHDAYKIWTCCDKKSTDFGTWMNYKGCTRGKHSNEKPVDIVKVAAVKEIRPEKEEDVIVWKGLNKSGKLDSKDATKRIEQNLNVEVTPGATAAIEKKLKEISEAAQSADIQIGAPCRNNGCSTEFDGSKNKENCQHHPGAAIFHEGMKYWSCCNKKTSNFGAFLEQVGCTSGEHKFRNNEIVSKFREDWFSSNGFVTINVYCRGALPETANIVSDGHTVRVSMKHGFGNASVDLDYDLWDEVIPEESRVVIGERKVEISLKQKHGTGWPRLKFDPELDAKNDEEA,not soluble
14,MVEDPYIWMENLQDNRVREIIERENKKFREFIGELSDKLFPEVWEYFSIPTVTMAKITKRGIIVSYNEKDRSIIRWLDGDVIVDSKEIEREVGDEVLLQGFTADDEGEKLAYSFSIGGADEGITRIIDLKSGEVIEEIKPSIWNILFLKDGYYFARFYRKEKTPDGVDPPAERVFWKDKEGEKMVFGEGLTSGYFMTLRKSSDDKFAMLTLNYGWNQGEIYVGPIDKPQEWRKVYSATVPVEPVDIVNGKLYILTREGRGMGKVIAVKDGEIEEVIPEGEFPLEWAVIVDDKIVAGRLVHASHRLEVYTLKGEKIEEVTFDIPGALHPLDKNNKEVLLRYISFTIPYRLYEFKDKLRIIEERKVEGKFKVEEDFVVSKDGTRIHYFIIKGEKDEKKAWVFGYGGFNIALTPRFFPQVIPFLKRGGTFVMANLRGGSEYGEEWHRAGMRENKQNVFDDFIAVLEKLKKEGYKVAAWGRSNGGLLVSATLTQRPDIMDAALIGYPVIDMLRFHKLYIGSVWIPEYGNPDDPKDREFLLKYSPYHNVDPNKKYPLTLIYTGLHDDRVHPAHALKFFMKLKEVGAPVYLRVETKSGHMGASPETRARELTDLLAFVLKSLS,soluble
15,MVEGKVTLRLRYTKTGAMRFLSHLEMIGLFTRAVGRSRIPIRFSRGFHPHPKFSFATALSVGVESWAEYLDMELFPGADPTDIGTRLNGALPEGVRIVEASVIPPGSPSLSVIMDKVRYRVTLPPEAAVGLPELAAAFLARESVPLRREKKGRVLEHHHHHH,soluble
16,MVEINLRELKKYANPFFLTIRKDKILVNNKRMARLSRTKMDKIEEEFGIPVIYSKTYEYVSTKVGRFINKHKIIAPRDIVIVGLSGGKDSLLLLHLLEVYRRKYGIKLIAVTVDVNIGGIRPWKEDTEGVKLIKHHCEMLNVPHIILKNDLDVVELSEILTKHSKGMEFSPCFSCSVIKRHLLGKLAKEIAENENIPYEKVKLAYGHNLDDNSDTILANIFKGERLKFMRPLTRFKYNEVDYQSFKIPLEECIIIRPMLPILERDIIKALEECGIEYYKDKDMCPYSRDRGDSVRRRCHEILEKLEEEIPNIREMVVSSALKTVEYYSKNPYGEDNL,soluble
17,MVELFGAVLLLFGLSDLLFRFLGLGAYAHGSRREPKVALTFDDGPSERTEALLALLARHGVKATFFLTGEKARARPDLVEAIKRAGHQVEDHGEWHRPLWLFLPWVEWRHMAQNPGRYYRPPYGLHTPFTRLFARLLGKRVVLWDLESKDWLNLPPEELAERLLFYLRPGSIVLFHDGPERTLRLLGAGPAGDAPPGVPAHHPGRPRPFAPHPEARPHPGPPGV,soluble
18,MVEQTTSEPAAGSMPKISFGVKKREENKVQAPAKAVVIEVDLDSDEEREKNEMERAAKRRKVMHFEDGTVQGDIDKPKEAAVIPMVVEHDWRTQKLIEKEKAGTLTEEERAKLALVLPNGIDGENEEESGKGEKIVVEDGRGDTEDADYSAIPIESFGLAILRGCNWKDGDGIGKNPQKVALKLPNRRPPGLGLGATPKNPVGKNKNTGESSKAEEEKLEEIKVGSFIKVVDGRNKGVYGKVEGRDDDSNSLFIRTAIGGKTMKVSQIVAVAVSAKEYERDSKCLNKSEYDKEKDRLETERKKLESQPPSTSTSQSSKDYKSKSSSSKHDKNSSEYERNDKMWARTDLLVRFIDEDFKRGSLYEQKVRIVDVAGDNDVTIEDDRGNTHYNIRQSWLETVIPREIGEKLMIVAGKRSGQLAVMLDKDKRKEKVTARLVATNDVVTAYFEDVCSVKIRHEEDYE,not soluble
19,MVERTAVFPAGRHSLYAEHRYSAAIRSGDLLFVSGQVGSREDGTPEPDFQQQVRLAFDNLHATLAAAGCTFDDIIDVTSFHTDPENQFEDIMTVKNEIFSAPPYPNWTAVGVTWLAGFDFEIKVIARIPEQ,soluble

# Source: the DeepSol protein solubility set
